Data from the supplement of paper PMC9112550, “Optimization of the antimicrobial peptide Bac7 by deep mutational scanning” (BMC Biology, 2022).

Test system: Escherichia coli TOP10
Experiment: shrunken log2 fold change of peptide-encoding DNA abundance (4.5 h post-induction vs induction); higher = less antimicrobial activity (less host growth inhibition)
Conditions: time post-induction: 4.5 h; library: site-saturation at positions 5, 18, 19, 20
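Also: peptides expressed intracellularly from a pBAD plasmid library in pooled LB shake-flask culture, induced with 0.3% L-arabinose, DNA abundance read by NGS, three biological replicates, DESeq2 with apeglm shrinkage.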

Sequence	shrunken log2 fold change
RRIRQRPPRLPRPRPRPLQAPRP	0.0365
RRIRQRPPRLPRPRPRPLRCPRP	0.244
RRIRQRPPRLPRPRPRPLRVPRP	0.298
RRIRQRPPRLPRPRPRPLTLPRP	-0.104
RRIRQRPPRLPRPRPRPLVQPRP	-0.361
RRIRQRPPRLPRPRPRPLWEPRP	0.025
RRIRQRPPRLPRPRPRPLWPPRP	0.227
RRIRQRPPRLPRPRPRPLYQPRP	-0.185
RRIRQRPPRLPRPRPRPMAFPRP	-0.0854
RRIRQRPPRLPRPRPRPMFHPRP	-0.815
RRIRQRPPRLPRPRPRPMGDPRP	0.0563
RRIRQRPPRLPRPRPRPMGGPRP	0.0922
RRIRQRPPRLPRPRPRPMGMPRP	0.0187
RRIRQRPPRLPRPRPRPMGQPRP	0.0628
RRIRQRPPRLPRPRPRPMHSPRP	-0.165
RRIRQRPPRLPRPRPRPMIPPRP	-0.0361
RRIRQRPPRLPRPRPRPMIRPRP	-0.0156
RRIRQRPPRLPRPRPRPMIWPRP	-0.79
RRIRQRPPRLPRPRPRPMKGPRP	0.0391
RRIRQRPPRLPRPRPRPMKHPRP	-0.373
RRIRQRPPRLPRPRPRPMKYPRP	-0.498
RRIRQRPPRLPRPRPRPMLCPRP	-0.00319
RRIRQRPPRLPRPRPRPMLIPRP	-0.221
RRIRQRPPRLPRPRPRPMLMPRP	-0.0108
RRIRQRPPRLPRPRPRPMLRPRP	-0.138

Sequence	shrunken log2 fold change
RRIRQRPPRLPRPRPRPMMAPRP	0.216
RRIRQRPPRLPRPRPRPMMHPRP	-0.252
RRIRQRPPRLPRPRPRPMMNPRP	-0.127
RRIRQRPPRLPRPRPRPMMVPRP	-0.0145
RRIRQRPPRLPRPRPRPMNCPRP	-0.0255
RRIRQRPPRLPRPRPRPMPLPRP	-0.00134
RRIRQRPPRLPRPRPRPMRWPRP	0.0431
RRIRQRPPRLPRPRPRPMSDPRP	-0.0194
RRIRQRPPRLPRPRPRPMTCPRP	0.0215
RRIRQRPPRLPRPRPRPMTKPRP	-0.0865
RRIRQRPPRLPRPRPRPMWHPRP	-0.18
RRIRQRPPRLPRPRPRPMYDPRP	-0.0385
RRIRQRPPRLPRPRPRPNAGPRP	0.0853
RRIRQRPPRLPRPRPRPNAMPRP	-0.226
RRIRQRPPRLPRPRPRPNDKPRP	-0.335
RRIRQRPPRLPRPRPRPNFGPRP	-0.0871
RRIRQRPPRLPRPRPRPNFNPRP	-0.295
RRIRQRPPRLPRPRPRPNFPPRP	-0.00205
RRIRQRPPRLPRPRPRPNGKPRP	-0.362
RRIRQRPPRLPRPRPRPNIHPRP	-0.619
RRIRQRPPRLPRPRPRPNILPRP	-0.233
RRIRQRPPRLPRPRPRPNLCPRP	-0.00174
RRIRQRPPRLPRPRPRPNLFPRP	-0.0199
RRIRQRPPRLPRPRPRPNMCPRP	-0.195
RRIRQRPPRLPRPRPRPNMFPRP	0.0369

Sequence	shrunken log2 fold change
RRIRQRPPRLPRPRPRPNNFPRP	-0.17
RRIRQRPPRLPRPRPRPNNWPRP	-0.0942
RRIRQRPPRLPRPRPRPNQFPRP	0.0334
RRIRQRPPRLPRPRPRPNRDPRP	-0.178
RRIRQRPPRLPRPRPRPNRKPRP	-0.141
RRIRQRPPRLPRPRPRPNSAPRP	-0.173
RRIRQRPPRLPRPRPRPNSHPRP	-0.191
RRIRQRPPRLPRPRPRPNWDPRP	0.126
RRIRQRPPRLPRPRPRPNYEPRP	-0.123
RRIRQRPPRLPRPRPRPNYLPRP	-0.134
RRIRQRPPRLPRPRPRPNYQPRP	-0.491
RRIRQRPPRLPRPRPRPPAIPRP	-0.0632
RRIRQRPPRLPRPRPRPPCCPRP	0.0763
RRIRQRPPRLPRPRPRPPCHPRP	0.0591
RRIRQRPPRLPRPRPRPPDEPRP	0.0836
RRIRQRPPRLPRPRPRPPDPPRP	0.151
RRIRQRPPRLPRPRPRPPECPRP	-0.0742
RRIRQRPPRLPRPRPRPPENPRP	0.0912
RRIRQRPPRLPRPRPRPPGIPRP	-0.0579
RRIRQRPPRLPRPRPRPPGPPRP	0.255
RRIRQRPPRLPRPRPRPPHMPRP	0.287
RRIRQRPPRLPRPRPRPPIGPRP	2.89
RRIRQRPPRLPRPRPRPPKDPRP	0.0238
RRIRQRPPRLPRPRPRPPKQPRP	-0.0279
RRIRQRPPRLPRPRPRPPKVPRP	2.65e-05

Sequence	shrunken log2 fold change
RRIRQRPPRLPRPRPRPPMKPRP	0.00136
RRIRQRPPRLPRPRPRPPMMPRP	0.154
RRIRQRPPRLPRPRPRPPMQPRP	-0.055
RRIRQRPPRLPRPRPRPPMTPRP	-0.268
RRIRQRPPRLPRPRPRPPPCPRP	0.393
RRIRQRPPRLPRPRPRPPPVPRP	0.607
RRIRQRPPRLPRPRPRPPRMPRP	0.442
RRIRQRPPRLPRPRPRPPRNPRP	0.765
RRIRQRPPRLPRPRPRPPSMPRP	-0.234
RRIRQRPPRLPRPRPRPPVWPRP	0.223
RRIRQRPPRLPRPRPRPPYKPRP	-0.166
RRIRQRPPRLPRPRPRPPYSPRP	-0.224
RRIRQRPPRLPRPRPRPQCLPRP	-0.122
RRIRQRPPRLPRPRPRPQCRPRP	0.0527
RRIRQRPPRLPRPRPRPQDEPRP	0.104
RRIRQRPPRLPRPRPRPQDTPRP	-0.555
RRIRQRPPRLPRPRPRPQGKPRP	-0.0747
RRIRQRPPRLPRPRPRPQGTPRP	0.193
RRIRQRPPRLPRPRPRPQHCPRP	-0.076
RRIRQRPPRLPRPRPRPQHLPRP	-0.0402
RRIRQRPPRLPRPRPRPQKCPRP	-0.00409
RRIRQRPPRLPRPRPRPQKDPRP	-0.29
RRIRQRPPRLPRPRPRPQKLPRP	-0.0725
RRIRQRPPRLPRPRPRPQKSPRP	0.0118
RRIRQRPPRLPRPRPRPQMMPRP	-0.082

Sequence	shrunken log2 fold change
RRIRQRPPRLPRPRPRPQPHPRP	0.158
RRIRQRPPRLPRPRPRPQQIPRP	-0.0822
RRIRQRPPRLPRPRPRPQQWPRP	0.201
RRIRQRPPRLPRPRPRPQRFPRP	-0.0204
RRIRQRPPRLPRPRPRPQRSPRP	0.0623
RRIRQRPPRLPRPRPRPQRTPRP	0.0128
RRIRQRPPRLPRPRPRPQSCPRP	0.00408
RRIRQRPPRLPRPRPRPQSYPRP	0.015
RRIRQRPPRLPRPRPRPQTKPRP	-0.133
RRIRQRPPRLPRPRPRPQTNPRP	-0.736
RRIRQRPPRLPRPRPRPQTSPRP	0.219
RRIRQRPPRLPRPRPRPQTTPRP	-0.0245
RRIRQRPPRLPRPRPRPQVEPRP	-0.0173
RRIRQRPPRLPRPRPRPQVIPRP	-0.0697
RRIRQRPPRLPRPRPRPRAGPRP	0.389
RRIRQRPPRLPRPRPRPRAIPRP	0.109
RRIRQRPPRLPRPRPRPRCEPRP	-0.128
RRIRQRPPRLPRPRPRPRCTPRP	-0.172
RRIRQRPPRLPRPRPRPRDSPRP	0.0142
RRIRQRPPRLPRPRPRPREEPRP	-0.00407
RRIRQRPPRLPRPRPRPRFAPRP	0.141
RRIRQRPPRLPRPRPRPRFYPRP	-0.206
RRIRQRPPRLPRPRPRPRGFPRP	0.0677
RRIRQRPPRLPRPRPRPRHAPRP	-0.0685
RRIRQRPPRLPRPRPRPRHQPRP	-0.00749

Sequence	shrunken log2 fold change
RRIRQRPPRLPRPRPRPRIFPRP	-0.131
RRIRQRPPRLPRPRPRPRKKPRP	-0.0181
RRIRQRPPRLPRPRPRPRMYPRP	-0.2
RRIRQRPPRLPRPRPRPRNFPRP	-0.0725
RRIRQRPPRLPRPRPRPRNQPRP	-0.329
RRIRQRPPRLPRPRPRPRPAPRP	0.185
RRIRQRPPRLPRPRPRPRPLPRP	0.382
RRIRQRPPRLPRPRPRPRQDPRP	0.243
RRIRQRPPRLPRPRPRPRREPRP	0.08
RRIRQRPPRLPRPRPRPRRHPRP	-0.0734
RRIRQRPPRLPRPRPRPRSCPRP	0.268
RRIRQRPPRLPRPRPRPRTLPRP	0.0409
RRIRQRPPRLPRPRPRPRTMPRP	-0.232
RRIRQRPPRLPRPRPRPRVEPRP	-0.0308
RRIRQRPPRLPRPRPRPRWPPRP	0.616
RRIRQRPPRLPRPRPRPRYMPRP	-0.0938
RRIRQRPPRLPRPRPRPSAAPRP	0.486
RRIRQRPPRLPRPRPRPSCPPRP	-0.037
RRIRQRPPRLPRPRPRPSDTPRP	-0.0683
RRIRQRPPRLPRPRPRPSENPRP	-0.0264
RRIRQRPPRLPRPRPRPSESPRP	-0.0923
RRIRQRPPRLPRPRPRPSFVPRP	-0.161
RRIRQRPPRLPRPRPRPSGCPRP	0.0869
RRIRQRPPRLPRPRPRPSIKPRP	-0.425
RRIRQRPPRLPRPRPRPSIYPRP	-0.988
